Assay: yeast display, Sf9 membrane polyspecificity reagent, FACS + sequencing; frameworks hold sequencing errors
Outline: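 Using colony PCR, genes from sorted yeast display clones were amplified, then sequenced on MiSeq at 2 × 250 and filtered by CDR length. The clones had been stained with 10% biotinylated, detergent-solubilized Sf9 membrane reagent for 1 hour at 4 °C and sorted by FACS into low and high (top ~1%) gates on anti-HA and streptavidin fluorescence. Polyreactivity labels come from the gate of origin.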

Row | Sequence | polyreactivity (PSR sort gate)
1 | QVQLVESGGGLVQAGGSLRLSCAASGLIFYKNAMAWYRQAPGKERELVAAIDWSSGSTYYADSVKGRFTISRDNAKNTVYLQMNSLIPEDTAVYYCAAEYVHHASGDFRTLYYYWGQGTQVTVSS | low polyreactivity
2 | QVQLVESGGGLVQAGGSLRLSCAASGLIFYPYAMGWYRQAPGKERELVAAITSDGSTYYADSVKGRFTISRDNAKNTVYLQMNSLKPEDTAVYYCAVVVAYFDDDYGLSWFYEYDYWGQGTQVTVSS | low polyreactivity
3 | QVQLVESGGGLVQAGGSLRLSCAASGLIFYRNAMGWYRQAPGKERELVAAISVSGGSTYYADSVKGRFTISRDNAKNTVYLQMNSLKPEDTAVYYCAAKTWRSRGLEMDYWGQGTQVTVSS | high polyreactivity
4 | QVQLVESGGGLVQAGGSLRLSCAASGLIFYRYAMGWYRQAPAKERELVADITRDSGSTSYADSVKGRFTISRDYAKNTVYLQMNSLKPEDTAVYYCNAGWVYTASGRQYYITYDYWGQGTQVTVSS | high polyreactivity
5 | QVQLVESGGGLVQAGGSLRLSCAASGLIFYRYAMGWYRQAPGKERELVAAISSGGSTYYADSVKGRFTISRDNAKNTVYLQMNSLKPEDTAVYYCNAKVYGRRYDYWGQGTQVTVSS | high polyreactivity
6 | QVQLVESGGGLVQAGGSLRLSCAASGLIFYSNAMGWYRQAPGKERELVAAISFNSGSTYYADSVKGRFTISRDNAKNTVYLQMNSLKPEDTAVYYCAKKRRFVVLSVQGDYWGQGTQVTVSS | low polyreactivity
7 | QVQLVESGGGLVQAGGSLRLSCAASGLIFYSYTMGWYRQAPGKERELVAVISRSGTSTYYADSVKGRFTISRDNAKNTVYLQMNSLKPEDTAVYYCAALTRSGPYAYEYWGQGTQVTVSS | high polyreactivity
8 | QVQLVESGGGLVQAGGSLRLSCAASGLIFYWNAMGWYRQAPGKERELVAGITSGGDTNYADSVKGRFTISRDNAKNTVYLQMNSLKPEDTAVYDCAAEGFRGYGYWGQGTQVTVSS | low polyreactivity
9 | QVQLVESGGGLVQAGGSLRLSCAASGLIFYWYAMGWYRQAPGKEREFVAAISYGGTTTSYADSVKGRFTISRDNAKNTVYLQMNSLKPEDTAVYYCAAEESTSSWSINDYWGQGTQVTVSS | low polyreactivity
10 | QVQLVESGGGLVQAGGSLRLSCAASGLIFYYYAMGWYRQAPGKERELVAAITRGGRTYYADSVKGRFTISRDNAKNTVYLQMNSLKPEDTAVYYCNTVSVKSGLDYWGQGTQVTVSS | high polyreactivity
11 | QVQLVESGGGLVQAGGSLRLSCAASGLIFYYYVMGWYRQAPGKERELVARISTSGGSTYYADSVKGRFTISRDNAKNTVYLQMNSLKPEDTAVYYCAADHYGGRDYWGQGTQVTVSS | low polyreactivity
12 | QVQLVESGGGLVQAGGSLRLSCAASGLIIPRYAMGWYRQAPGKERELVAAITYTGGSTYYADSVKGRFTISRDNAKNTVYLQMNSLKPEDTSVYYCAVVVGYTDSPYSYDYWGQGTQVTVSS | low polyreactivity
13 | QVQLVESGGGLVQAGGSLRLSCAASGLIIVYNAIGWYRHAPGKERELVAGITSGGSTNYADSEKGRFTISRDNAKKTVYLQMNSLKPEDTAVYYCNAPVTGAGTYPPYDSWGQGTQVTVSS | high polyreactivity
14 | QVQLVESGGGLVQAGGSLRLSCAASGLILGRYAMGWYRQAPGKERELVAAITRGGRTYYADSVKGRFTISRDNAKNTVYLQMNSLKPEDPAVYYCAATFGYTRNDYDYWGHGTQVTVSS | high polyreactivity
15 | QVQLVESGGGLVQAGGSLRLSCAASGLILGVYSMGWYRQAPGKEREFVASINYGGGSTYYADSGKGRFTISRDNAKNTVYLQMNSLKPEDTAVYYCNARSRWGGTRLYSYDYWGQGTQVTVSS | low polyreactivity
16 | QVQLVESGGGLVQAGGSLRLSCAASGLILGYYAMGWYRQAPGKERELVAAITSSGTTTYYADSVKGRFTISRDNAKNTVYLQMNSLKPEDTAVYYWAALYIGKKRFNYWGQGTQVNVSS | high polyreactivity
17 | QVQLVESGGGLVQAGGSLRLSCAASGLILQYYVMGWYRQAPGKERELVAAITRSGGGTYYADSVKGRFTISRDNAKNTVYLQMNSLKPEDTAVYYCADRQPYRFHGSEYDYWGQGTQVNVSS | high polyreactivity
18 | QVQLVESGGGLVQAGGSLRLSCAASGLILRKYAMGWYRQAPGKEREFVAAITQTGSRSYYADSVKGRFTISRDNAKNTVYLQMNSLKPEDTAVYYCAARGTRAYRTYDYWGQGTQVTVSS | high polyreactivity
19 | QVQLVESGGGLVQAGGSLRLSCAASGLILTRYAMGWYRQAPGKERELVAAITKNGGSTYYADSVKGRFTISRDNAKNTVYLLMNSLKPEDTAVYYCNVCPRRVDRSRAASSDYDYWGQGSQVTVSS | high polyreactivity
20 | QVQLVESGGGLVQAGGSLRLSCAASGLILTWNAMGWYRQAPGKERELVAAISRSDGITYYADSVKGRFTISRDTAKNTVYIQMNSLKPEDTAVYYCAKDGVPKGRGGAYYEYDYWGQGTQVTVSS | low polyreactivity
21 | QVQLVESGGGLVQAGGSLRLSCAASGLILVPNTMGWYRQAPGKERELVAAISYSGGGTYYADSVKGRFTISRDNAKNTVYLQMNSLKPEDTAVYYCAADFYQSHFYRPRYDYWGQGTQVTVSS | low polyreactivity
22 | QVQLVESGGGLVQAGGSLRLSCAASGLILYFNARGWYRQAPGKERELVADISSSGSSTYYADSVKGRFTISRDNAKNTVYLQMNSLKPEDTAVYYCAAGYYGEYWRSWYDYWGQGTQVTVSS | low polyreactivity

Row | Sequence | polyreactivity (PSR sort gate)
23 | QVQLVESGGGLVQAGGSLRLSCAASGLILYRYAMGWYRQAPGKERELVAAITTSGSSTFYADSVKGRFTISRDNAKNTVYLQMNSLKPEDTAVYYCAATRPRYGIYWYDYWGQGTQVTVSS | high polyreactivity
24 | QVQLVESGGGLVQAGGSLRLSCAASGLILYSYAMGWYRQAPGKERELVADISSGGITNYADSVKGRFTISRDNAKNTVYLQMNSLKPEDTAVYYCAADTRTSYYNDDYDYWGQGTQVTVSS | low polyreactivity
25 | QVQLVESGGGLVQAGGSLRLSCAASGLIMRTNVMGWYRQPPGKERELVAAINFRTGSTYYADSVKGRFTISRDHAKNTVYLQMNSLKPEDTAVYYCAKAERRHYDYWGQGTQVTVSS | low polyreactivity
26 | QVQLVESGGGLVQAGGSLRLSCAASGLISGDYAMGWYRQAPGKERELVARITSGDSTNYADSVKGRFTISRDNAKNTVYLQMNSLKPEDTAVYYCAAKRYVFQNDYWGQGTQVTVSS | low polyreactivity
27 | QVQLVESGGGLVQAGGSLRLSCAASGLNFARNAMGWYRQAPGKERELVASITSGGSTNYADSVKGRFTISRDNAKNTVYLQMNSLKPEDTAVYFCNKAYFFPYPRYRYEYWGQGTQVTVSS | high polyreactivity
28 | QVQLVESGGGLVQAGGSLRLSCAASGLTFADYAMGWYRQAPGKERELVAAISRRGGSTYYADSVKGRFTISRDNAKNTVYLQMNSLKPEDTAVYYCAAGNRVNRFDYWGQGTQVTVSS | high polyreactivity
29 | QVQLVESGGGLVQAGGSLRLSCAASGLTFAFYAMGWYRQAPGKEREFVAAITTGGSTYYADSVKGRFTISRDNAKNTVYLQMNSLKPEDTAVYYCAADLYRRRGQFDYWGQGTQVTVSS | high polyreactivity
30 | QVQLVESGGGLVQAGGSLRLSCAASGLTFAQNAMGWYRQAPGKERELVAAITRSGGRTYYADSVKGRFTISRDNSKNTVYFQMNSLKPEDTAVYYCAARVLQYSGYYYWGQGTQVTVSS | high polyreactivity
31 | QVQLVESGGGLVQAGGSLRLSCAASGLTFARYAMGWYRQAPGKERELVAGISWSGGRTYYADSVKGRFTISRDNAKNTVYLQMNSLKPEDTAVYYCATTQFQRSGYYYWGQGTQVTVSS | high polyreactivity
32 | QVQLVESGGGLVQAGGSLRLSCAASGLTFAVYAMGWYRQAPGKERELVAAITYSGSRTYYADSVKGRFTISRDNAKNTVYLQMNSLKPEDTAVYYCNALYRRDIKFYYWGQGTQVTVSS | high polyreactivity
33 | QVQLVESGGGLVQAGGSLRLSCAASGLTFAYYAMGWYRQAPGKERELVAVISSAGSTYYADSVKGRFTISRDNAKNTVYLQMNSLNPEDTAVYYCAARAPSSISQTRGMYYWGQGTQVTVSS | high polyreactivity
34 | QVQLVESGGGLVQAGGSLRLSCAASGLTFAYYVMGSYRQAPWKERELVAAISRRGGSTYYADSVKGRFTISRDNAKNTVYLQMNSLKPEDTAVYYCNTDWPLPNGGEPGYWGQGTQVTVSS | high polyreactivity
35 | QVQLVESGGGLVQAGGSLRLSCAASGLTFDAYAMGWYRQAPGKERELDAAISSGGNTYYADSVKGRFTISRDNAKNTVYLQMNSLKPEDTAVYYCNAVGYYKYFFLAYEYDYWGQGTQVTVSS | low polyreactivity
36 | QVQLVESGGGLVQAGGSLRLSCAASGLTFDNYAMGWYRQAPGKERELVAAISTSSGRTYYADSVKGRFTISRDNAKNTVYLQMNSLKPEDTAVYYCAAEVAFIYSYYEVYKYEYWGQGTQVTVSS | high polyreactivity
37 | QVQLVESGGGLVQAGGSLRLSCAASGLTFDSYTMGWYRQAPGKERELVAAITNSGGSTYYADSVKGRFTISRDNAKNTVYLQMNSLKPEDTAVYYCAAFRTSRLYGGSYGYWGQGTQVTVSS | high polyreactivity
38 | QVQLVESGGGLVQAGGSLRLSCAASGLTFEHNAMGWYRQAPGKEREFVAVISWRGTSTYYADSVKGRFTISRDNAKNTVYLQMNSLKPEATAVYYCAAGYRGVANRKWIYYYWGQGTQVTVSS | high polyreactivity
39 | QVQLVESGGGLVQAGGSLRLSCAASGLTFERNAMGWYRQAPGKERELVAAISSGGSTYYADSVKGRFTISRDNAKNTVYLQMNSLKPEDTAVYYCAVYDWNSYFYRSWWSGFYYWGQGTQVTVSS | low polyreactivity
40 | QVQLVESGGGLVQAGGSLRLSCAASGLTFESYAMGWYRQAPGKERELVAGIDWSGGSTYYADSVKGRFTISRDNAKNTVYLQMNSLKPEDTAGYYCKRYGNSNYFAPGPLYNYWGQGTQVTVSS | high polyreactivity
41 | QVQLVESGGGLVQAGGSLRLSCAASGLTFFGYPMGWYRQAPGKEREFVADITWSGGSTYYADSVKGRFTISRDNAKNTVYLQMNSLKPEDTAVYYCAADYHKAEFNYWGQGTQVTVSS | low polyreactivity
42 | QVQLVESGGGLVQAGGSLRLSCAASGLTFFRNAMGWYRQAPGKEREFVAGITSTDGSTYYADSVKGRFTISRDNAKNTVYLQMNSLKPEDTAVYYCAAAYRVRGRTYDSWGQGTQVTVSS | high polyreactivity
43 | QVQLVESGGGLVQAGGSLRLSCAASGLTFGDYAMGWYRQAPGKERELVAAITKSGGRTYYADSVKGRFTISRDNAKNTVYLQMNSLKPEDTEVYYCATRKGRRYGYNYWGQGTQVTVSS | high polyreactivity
